According to patent publication US11795460B2, “Compositions and methods for TTR gene editing and treating ATTR amyloidosis” (Intellia Therapeutics, Inc., priority 2017, dated 2023):
Strand notation (5' to 3'): a small letter for the sugar, then the base; units joined by * are phosphorothioate-linked, units joined directly phosphodiester-linked; [ ] holds rarer units or linkages, { } end groups; capitals alone tell only the bases. m = 2'-O-methyl; r = 2'-OH (RNA)

Experiments:
human TTR sequence = experiment: Liver editing in humanized TTR mice dosed with LNP formulations (Table 26); format: in vivo, mouse
TTR = experiment: EC50 and maximum editing in primary cyno hepatocytes treated with LNP formulated U-depleted Spy Cas9 mRNA and sgRNAs (Tables 20, 22); format: cell-based, cynomolgus monkey; parameters: key: % of sequence reads with indels or substitutions over total reads; settings: dose response
Procedure: Primary liver hepatocytes. Primary human liver hepatocytes (PHH) and primary cynomolgus liver hepatocytes (PCH) (Gibco) were cultured per the manufacturer's protocol (Invitrogen, protocol 11.28.2012). In brief, the cells were thawed and resuspended in hepatocyte thawing medium with supplements (Gibco, Cat. CM7000) followed by centrifugation at 100 g for 10 minutes for human and 80 g for 4 minutes for cyno. The supernatant was discarded and the pelleted cells resuspended in hepatocyte plating medium plus supplement pack (Invitrogen, Cat. A1217601 and CM3000). Cells were counted and plated on Bio-coat collagen I coated 96-well plates (ThermoFisher, Cat. 877272) at a density of 33,000 cells/well for human or 60,000 cells/well for cyno (or 65,000 cells/well when assaying effects on TTR protein, described further below). Plated cells were allowed to settle and adhere for 6 or 24 hours in a tissue culture incubator at 37° C. and 5% CO2 atmosphere. After incubation cells were checked for monolayer formation and media was replaced with hepatocyte culture medium with serum-free supplement pack (Invitrogen, Cat. A1217601 and CM4000).
For LNPs prepared using the cross-flow technique, the LNPs were formed by impinging jet mixing of the lipid in ethanol with two volumes of RNA solutions and one volume of water. The lipid in ethanol is mixed through a mixing cross with the two volumes of RNA solution. A fourth stream of water is mixed with the outlet stream of the cross through an inline tee. (See WO2016010840 FIG. 2.) The LNPs were held for 1 hour at room temperature, and further diluted with water (approximately 1:1 v/v). Diluted LNPs were concentrated using tangential flow filtration on a flat sheet cartridge (Sartorius, 100 kD MWCO) and then buffer exchanged by diafiltration into 50 mM Tris, 45 mM NaCl, 5% (w/v) sucrose, pH 7.5 (TSS). Alternatively, the final buffer exchange into TSS was completed with PD-10 desalting columns (GE). If required, formulations were concentrated by centrifugation with Amicon 100 kDa centrifugal filters (Millipore). The resulting mixture was then filtered using a 0.2 μm sterile filter. The final LNP was stored at 4° C. or −80° C. until further use.
To quantitatively determine the efficiency of editing at the target location in the genome, sequencing was utilized to identify the presence of insertions and deletions introduced by gene editing.
Primers were designed around the target site within the gene of interest (e.g. TTR), and the genomic area of interest was amplified.
Additional PCR was performed per the manufacturer's protocols (Illumina) to add chemistry for sequencing. The amplicons were sequenced on an Illumina MiSeq instrument. The reads were aligned to a reference genome (e.g., the human reference genome (hg38), the cynomologus reference genome (mf5), the rat reference genome (rn6), or the mouse reference genome (mm10)) after eliminating those having low quality scores. The resulting files containing the reads were mapped to the reference genome (BAM files), where reads that overlapped the target region of interest were selected and the number of wild type reads versus the number of reads which contain an insertion, substitution, or deletion was calculated.
The editing percentage (e.g., the “editing efficiency” or “percent editing” or “indel frequency”) is defined as the total number of sequence reads with insertions/deletions (“indels”) or substitutions over the total number of sequence reads, including wild type.
Lipid nanoparticle formulations of modified sgRNAs targeting human TTR and the cyno matched sgRNA sequences were tested on primary human hepatocytes and primary cyno hepatocytes in a dose response curve. Primary human and cyno hepatocytes were plated as described in Example 1. Both cell lines were incubated at 37° C., 5% CO2 for 24 hours prior to treatment with LNPs. […]

[1] = 1, 0.3, 0.1, or 0.03 mg/kg, Cas9 mRNA (SEQ ID NO: 1) 1:1 by weight to guide, FIG. 26A
[2] = Table 20, LNP with U-depleted Spy Cas9 mRNA and human specific sgRNAs
[3] = 1, 0.3, or 0.1 mg/kg, Cas9 mRNA (SEQ ID NO: 1) 1:1 by weight to guide, FIG. 27A
[4] = 1, 0.3, or 0.1 mg/kg, Cas9 mRNA (SEQ ID NO: 1) 1:2 by weight to guide, FIG. 28A

Molecule	Liver editing, dose response (human TTR sequence; [1])	Max Editing (TTR; [2])	Liver editing, dose response (human TTR sequence; [3])	Liver editing, dose response (human TTR sequence; [4])	Max Editing (TTR; Table 22, LNP with U-depleted Spy Cas9 mRNA and cyno specific sgRNAs)
G000489: TTR sgRNA modified sequence, Human, SEQ ID No. 96; guide sequence of CR003344 (nucleic acid) guide: mU*mU*mU*rGrArCrCrArUrCrArGrArGrGrArCrArCrUrGrUrUrUrUrArGrAmGmCmUmAmGmAmAmAmUmAmGmCrArArGrUrUrArArArArUrArArGrGrCrUrArGrUrCrCrGrUrUrArUrCrAmAmCmUmUmGmAmAmAmAmAmGmUmGmGmCmAmCmCmGmAmGmUmCmGmGmUmGmCmU*mU*mU*mU	A dose response for both editing and serum TTR levels was evident	89.21			
G000481: TTR sgRNA modified sequence, Human, SEQ ID No. 88; guide sequence of CR003345 (nucleic acid) guide: mU*mC*mU*rArGrArArCrUrUrUrGrArCrCrArUrCrArGrGrUrUrUrUrArGrAmGmCmUmAmGmAmAmAmUmAmGmCrArArGrUrUrArArArArUrArArGrGrCrUrArGrUrCrCrGrUrUrArUrCrAmAmCmUmUmGmAmAmAmAmAmGmUmGmGmCmAmCmCmGmAmGmUmCmGmGmUmGmCmU*mU*mU*mU		95.07	A dose response for both editing and serum TTR levels was evident	A dose response for both editing and serum TTR levels was evident	
G000482: TTR sgRNA modified sequence, Human, SEQ ID No. 89; guide sequence of CR003365 (nucleic acid) guide: mU*mG*mU*rArGrArArGrGrGrArUrArUrArCrArArArGrGrUrUrUrUrArGrAmGmCmUmAmGmAmAmAmUmAmGmCrArArGrUrUrArArArArUrArArGrGrCrUrArGrUrCrCrGrUrUrArUrCrAmAmCmUmUmGmAmAmAmAmAmGmUmGmGmCmAmCmCmGmAmGmUmCmGmGmUmGmCmU*mU*mU*mU		97.47	A dose response for both editing and serum TTR levels was evident		
G000502: TTR Cyno specific sgRNA modified sequence, SEQ ID No. 114; guide sequence of CR000689; cross homologous between mouse and cyno (nucleic acid) guide: mA*mC*mA*rCrArArArUrArCrCrArGrUrCrCrArGrCrGrGrUrUrUrUrArGrAmGmCmUmAmGmAmAmAmUmAmGmCrArArGrUrUrArArArArUrArArGrGrCrUrArGrUrCrCrGrUrUrArUrCrAmAmCmUmUmGmAmAmAmAmAmGmUmGmGmCmAmCmCmGmAmGmUmCmGmGmUmGmCmU*mU*mU*mU	A dose response for both editing and serum TTR levels was evident			A dose response for both editing and serum TTR levels was evident	100.05
